Target: OT-I T cell receptor on OTi target T cells (splenocytes from OT-I mouse) (mouse)
Test: cell-based or functional assay

Question: With “FITC-conjugated H2Kb-SIINFEKL tetramer (from UniProt P01901 22-305) (peptide-MHC)” as the substance, how does the cytotoxicity of CD8 CAR T cells on OTi cells read?
Answer: > 50%

Source: patent US20240139242A1
